In patent US7351555B2, “Mouse cytokine receptor Zcytor16” (ZymoGenetics, Inc., priority 2001, dated 2008):

What was measured:
[1] = test system: K-562 cells; assay: K-562 cytotoxicity assay (MTT); assay type: cell-based, human; settings: 72 h
Experimental: The K-562 cell line (CRL-243, ATCC) has attained widespread use as a highly sensitive in vitro target for cytotoxicity assays. K-562 blasts are multipotential, hematopoietic malignant cells that spontaneously differentiate into recognizable progenitors of the erythrocytic, granulocytic and monocytic series (Lozzio, B B et al., Proc. Soc. Exp. Biol. Med. 166: 546-550, 1981).
K562 cells were plated at 5,000 cells/well in 96-well tissue culture clusters (Costar) in DMEM phenol-free growth medium (Life Technologies) supplemented with pyruvate and 10% serum (HyClone). Next day, human recombinant IL-TIF (Example 19), BSA control or retinoic acid (known to be cytotoxic to K562 cells) were added. Seventy-two hours later, the vital stain MTT (Sigma, St Louis, Mo.), a widely used indicator of mitochondrial activity and cell growth, was added to the cells at a final concentration of 0.5 mg/ml. […] is converted to a purple formazan derivative by mitochondrial dehydrogenases. Four hours later, converted MMP was solubilized by adding an equal volume of acidic, isopropanol (0.04N HCl in absolute isopropanol) to the wells. Absorbance was measured at 570 nm, with background subtraction at 650 nm. In this experimental setting, absorbance reflects cell viability. Results shown in Table 12 are expressed as % cytotoxicity.

[2] = test system: MES 13 cells; assay: IL-TIF activation of SRE/STAT luciferase reporter mini-gene in MES 13 cells; assay type: cell-based, murine; settings: 4 h
Experimental: MES 13 cells (ATCC No. CRL-1927) were plated at 10,000 cells/well in 96-well tissue culture clusters (Costar) in DMEM growth medium (Life Technologies) supplemented with pyruvate and 10% serum (HyClone). Next day, the medium was switched to serum free DMEM medium by substituting 0.1% BSA (Fraction V; Sigma) for serum. This medium also contained the adenoviral construct KZ136 (below) that encodes a luciferase reporter mini-gene driven by SRE and STAT elements, at a 1000:1 multiplicity of infection (m.o.i.), i.e. 1000 adenoviral particles per cell. After allowing 24 h for the incorporation of the adenoviral construct in the cells, the media were changed and replaced with serum-free media. Human recombinant IL-TIF with or without a recombinant Zcytor16-Fc4 fusion was added at the indicated final concentration in the well (as described in Table 11, below). Dilutions of both the IL-TIF and Zcytor16-Fc4 were performed in serum-free medium. 0.1% BSA was added for a basal assay control. 4 h later, cells were lysed and luciferase activity, denoting activation of the reporter gene, was determined in the lysate using an Luciferase Assay System assay kit (Promega) and a Labsystems Luminoskan luminometer (Labsystems, Helsinki, Finland). Activity was expressed as luciferase units (LU) in the lysate.
The construction of the adenoviral KZ136 vector was as follows. The original KZ136 vector is disclosed in Poulsen, L K et al. J. Biol. Chem. 273:6228-6232, 1998. The CMV promoter/enhancer and SV40 pA sequences were removed from pACCMV.pLpA (T. C. Becker et al., […] 43:161-189, 1994.) and replaced with a linker containing Asp718/KpnI and HindIII sites (oligos ZC13252 (SEQ ID NO:26) and ZC13453 (SEQ ID NO:27)). The STAT/SRE driven luciferase reporter cassette was exised from vector KZ136 (Poulsen, L K et al., supra.).) as a Asp718/KpnI-HindIII fragment and inserted into the adapted pAC vector. Recombinant KZ136 Adenovirus was produced by transfection with JM17 Adenovirus into 293 cells as described in T. C. Becker et al. supra.). Plaque purified virus was amplified and used to infect cultured cells at 5-50 pfu/cell 12-48 hours before assay. Luciferase reporter assays were performed as described in 96 well microplates as per Poulsen, L K et al., supra.).

[3] = test system: BaF3 wild type cells; assay: Alamar Blue proliferation assay, IL-TIF activity; assay type: cell-based, murine
[4] = test system: BaF3/mZcytor16-MPL receptor cell line; assay: Proliferation assay with BaF3/mZcytor16-MPL chimera cells; assay type: cell-based, murine; settings: in the presence of the correct receptor complex
Experimental: Using standard methods described herein, cells expressing a BaF3/mZcytor16-MPL chimera (wherein the extracellular domain of the mouse Zcytor16 (e.g., amino acids 24 to 230 of SEQ ID NO:38 or SEQ ID NO:48) is fused in frame to the intracellular signaling domain of the mpl receptor) are tested for proliferative response in the presence of IL-TIF. Such cells serve as a bioassay cell line to measure ligand binding of monomeric or homodimeric mouse Zcytor16 receptors. In addition, BaF3/mZcytor16-MPL chimera cells transfected with an additional heterodimeric cytokine receptor subunit can be assessed for proliferative response in the presence of IL-TIF. […] Transfection of the BaF3/MPL-mZcytor16 cell line with and additional MPL-class II cytokine receptor fusion that signals in the presence of the IL-TIF ligand, such as CRF2-4, determines which heterodimeric cytokine receptor subunits are required for mouse Zcytor16 receptor signaling. Use of MPL-receptor fusions for this purpose alleviates the requirement for the presence of an intracellular signaling domain for the mouse Zcytor16 receptor.
Each independent receptor complex cell line is then assayed in the presence of IL-TIF and proliferation measured using routine methods (e.g., Alamar Blue assay). […]

[5] = test system: BaF3/CRF2-4/zcytor11 cells; assay: Alamar Blue proliferation assay, IL-TIF activity; assay type: cell-based, murine; settings: 3 days + Alamar Blue
Experimental: BaF3/CRF2-4/zcytor11 cells were spun down and washed in the complete media, described in Example 7A above, but without mIL-3 (hereinafter referred to as “mIL-3 free media”). The cells were spun and washed 3 times to ensure the removal of the mIL-3. Cells were then counted in a hemacytometer. Cells were plated in a 96-well format at 5000 cells per well in a volume of 100 μl per well using the mIL-3 free media.
Proliferation of the BaF3/CRF2-4/zcytor11 cells was assessed using IL-TIF-CEE protein diluted with mIL-3 free media to 50, 10, 2, 1, 0.5, 0.25, 0.13, 0.06 ng/ml concentrations. 100 μl of the diluted protein was added to the BaF3/CRF2-4/zcytor11 cells. The total assay volume is 200 μl. The assay plates were incubated at 37° C., 5% CO2 for 3 days at which time Alamar Blue (Accumed, Chicago, Ill.) was added at 20 μl/well. Plates were again incubated at 37° C., 5% CO2 for 24 hours. Alamar Blue gives a fluourometric readout based on number of live cells, and is thus a direct measurement of cell proliferation in comparison to a negative control. […] Plates were read on the Fmax™ plate reader (Molecular Devices Sunnyvale, Calif.) using the SoftMax™ Pro program, at wavelengths 544 (Excitation) and 590 (Emmission). […] The response, as measured, was approximately 15-fold over background at the high end of 50 ng/ml down to a 2-fold induction at the low end of 0.06 ng/ml.

[6] = test system: BaF3/CRF2-4 cells; assay: Alamar Blue proliferation assay, IL-TIF activity; assay type: cell-based, murine

B1: IL-TIF: human IL-TIF polypeptide (SEQ ID NO:15) containing C-terminal GluGlu (EE) tag, purified from BHK cells (protein, listed as Homo sapiens)
chain: MAALQKSVSSFLMGTLATSCLLLLALLVQGGAAAPISSHCRLDKSNFQQPYITNRTFMLAKEASLADNNTDVRLIGEKLFHGVSMSERCYLMKQVLNFTLEEVLFPQSDRFQPYMQEVVPFLARLSNRLSTCHIEGDDLHIQRNVQKLKDTVKKLGESGEIKAIGELDLLFMSLRNACI
modifications: C-terminal EE tag
With B1 the “% Cytotoxicity” value ([1]; 100 ng/ml) was 16.2%, the “% Cytotoxicity” value ([1]; 300 ng/ml) was 32% and the “LU w/o zcytoR16” value ([2]; IL-TIF 0.03 ng/ml) was 105 ± 3 LU. For the same molecule, the “LU w/o zcytoR16” value ([2]; IL-TIF 0.3 ng/ml) was 108 ± 4 LU, the “LU w/o zcytoR16” value ([2]; IL-TIF 3 ng/ml) was 134 ± 8 LU and the “LU w/o zcytoR16” value ([2]; IL-TIF 30 ng/ml) was 188 ± 16 LU. For the same molecule, the “LU w/o zcytoR16” value ([2]; IL-TIF 300 ng/ml) was 258 ± 21 LU, the “proliferation in response to IL-TIF-CEE” value [3] was “did not proliferate” and the “increase of proliferation over background” value [4] was at least 5 fold. The “proliferative response (induction)” value ([5]; IL-TIF-CEE 0.06 ng/ml) was about 2 fold, the “proliferative response over background” value ([5]; IL-TIF-CEE 50 ng/ml) was “approximately 15 fold” and the “proliferation in response to IL-TIF-CEE” value [6] was “did not proliferate”.
